Laboratory results from patent US20170355766A1 (Xencor, published 2017).
Numbering of substitutions follows the chain as printed. Names may count otherwise.

T1: human FcγRIIb receptor protein (R&D Systems) (human, UniProt P31994 46-217)
T1 construct: Analyte injected over antibodies captured on a protein A/G chip (Biacore); also called CD32b
T1 sequence (looked up): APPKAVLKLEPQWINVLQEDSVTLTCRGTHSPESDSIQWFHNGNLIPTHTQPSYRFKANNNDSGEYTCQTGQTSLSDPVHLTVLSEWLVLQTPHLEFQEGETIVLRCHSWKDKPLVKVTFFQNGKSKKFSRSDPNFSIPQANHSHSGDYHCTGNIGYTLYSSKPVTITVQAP

T2: FcγRIIaR (human, UniProt P12318)
T2 construct: recombinant receptor protein with 6xHis and GST tags; also called R131 FcγRIIa
T2 sequence (receptor, looked up): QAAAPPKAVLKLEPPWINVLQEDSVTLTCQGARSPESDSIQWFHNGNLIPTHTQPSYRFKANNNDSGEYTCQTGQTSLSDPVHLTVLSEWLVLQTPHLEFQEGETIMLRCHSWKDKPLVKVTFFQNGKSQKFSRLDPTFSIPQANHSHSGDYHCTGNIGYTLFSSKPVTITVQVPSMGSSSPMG

B1: A327G (antibody, human IgG1, kappa)
heavy: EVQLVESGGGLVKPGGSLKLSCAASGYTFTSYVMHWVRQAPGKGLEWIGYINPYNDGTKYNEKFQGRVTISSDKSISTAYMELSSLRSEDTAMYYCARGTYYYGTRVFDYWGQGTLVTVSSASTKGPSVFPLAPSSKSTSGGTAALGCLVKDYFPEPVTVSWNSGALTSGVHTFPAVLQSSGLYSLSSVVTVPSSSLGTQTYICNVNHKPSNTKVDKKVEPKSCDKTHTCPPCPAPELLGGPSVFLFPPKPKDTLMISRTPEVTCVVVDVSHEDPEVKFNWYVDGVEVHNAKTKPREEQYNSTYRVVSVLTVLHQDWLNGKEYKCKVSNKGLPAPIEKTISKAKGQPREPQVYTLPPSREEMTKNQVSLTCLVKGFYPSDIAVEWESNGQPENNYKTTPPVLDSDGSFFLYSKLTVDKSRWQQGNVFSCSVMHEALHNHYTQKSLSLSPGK
light: DIVMTQSPATLSLSPGERATLSCRSSKSLQNVNGNTYLYWFQQKPGQSPQLLIYRMSNLNSGVPDRFSGSGSGTEFTLTISSLEPEDFAVYYCMQHLEYPITFGAGTKLEIKRTVAAPSVFIFPPSDEQLKSGTASVVCLLNNFYPREAKVQWKVDNALQSGNSQESVTEQDSKDSTYSLSSTLTLSKADYEKHKVYACEVTHQGLSSPVTKSFNRGEC
notes: HuAM4G7 IgG1 Fc variant
B2: A327Q (antibody, human IgG1, kappa)
heavy: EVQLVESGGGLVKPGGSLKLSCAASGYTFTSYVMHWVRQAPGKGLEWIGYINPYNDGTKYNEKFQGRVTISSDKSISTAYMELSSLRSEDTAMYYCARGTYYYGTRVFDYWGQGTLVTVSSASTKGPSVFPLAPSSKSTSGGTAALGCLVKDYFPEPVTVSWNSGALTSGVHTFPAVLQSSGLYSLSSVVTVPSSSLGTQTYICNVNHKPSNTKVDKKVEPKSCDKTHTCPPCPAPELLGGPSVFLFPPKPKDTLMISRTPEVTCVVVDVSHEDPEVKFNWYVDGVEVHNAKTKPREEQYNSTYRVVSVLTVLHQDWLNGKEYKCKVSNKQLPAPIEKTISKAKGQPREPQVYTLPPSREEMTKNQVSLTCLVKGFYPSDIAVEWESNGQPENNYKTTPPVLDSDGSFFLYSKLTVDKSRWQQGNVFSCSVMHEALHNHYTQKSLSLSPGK
light: B1 light
notes: HuAM4G7 IgG1 Fc variant
B3: D265E (antibody, human IgG1, kappa)
heavy: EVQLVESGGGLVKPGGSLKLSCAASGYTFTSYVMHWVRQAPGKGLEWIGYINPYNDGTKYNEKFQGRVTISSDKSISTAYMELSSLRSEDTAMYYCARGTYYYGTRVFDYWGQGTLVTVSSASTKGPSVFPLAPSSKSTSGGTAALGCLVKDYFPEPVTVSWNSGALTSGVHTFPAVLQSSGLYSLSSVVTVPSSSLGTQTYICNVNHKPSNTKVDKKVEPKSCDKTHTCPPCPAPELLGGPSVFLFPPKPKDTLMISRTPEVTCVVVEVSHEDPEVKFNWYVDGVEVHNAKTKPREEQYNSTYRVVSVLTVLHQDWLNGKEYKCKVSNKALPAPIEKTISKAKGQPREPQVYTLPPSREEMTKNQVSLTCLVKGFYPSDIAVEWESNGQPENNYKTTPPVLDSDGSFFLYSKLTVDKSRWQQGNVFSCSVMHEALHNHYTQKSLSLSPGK
light: B1 light
notes: HuAM4G7 IgG1 Fc variant
B4: G236E/S267E (antibody, human IgG1, kappa)
heavy: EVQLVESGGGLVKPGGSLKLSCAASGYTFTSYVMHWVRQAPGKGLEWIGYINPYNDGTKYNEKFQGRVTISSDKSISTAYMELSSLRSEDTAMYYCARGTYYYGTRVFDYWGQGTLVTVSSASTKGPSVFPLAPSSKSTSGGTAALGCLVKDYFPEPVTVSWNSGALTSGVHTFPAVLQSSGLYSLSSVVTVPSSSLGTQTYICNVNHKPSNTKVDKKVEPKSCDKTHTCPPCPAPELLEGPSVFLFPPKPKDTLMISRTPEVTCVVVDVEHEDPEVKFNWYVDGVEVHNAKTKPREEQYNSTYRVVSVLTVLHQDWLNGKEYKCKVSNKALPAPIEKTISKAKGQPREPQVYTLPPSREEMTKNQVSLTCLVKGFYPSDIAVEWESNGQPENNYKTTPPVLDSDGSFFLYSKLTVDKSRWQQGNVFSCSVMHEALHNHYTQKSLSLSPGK
light: B1 light
notes: HuAM4G7 IgG1 Fc variant
B5: G236H (antibody, human IgG1, kappa)
heavy: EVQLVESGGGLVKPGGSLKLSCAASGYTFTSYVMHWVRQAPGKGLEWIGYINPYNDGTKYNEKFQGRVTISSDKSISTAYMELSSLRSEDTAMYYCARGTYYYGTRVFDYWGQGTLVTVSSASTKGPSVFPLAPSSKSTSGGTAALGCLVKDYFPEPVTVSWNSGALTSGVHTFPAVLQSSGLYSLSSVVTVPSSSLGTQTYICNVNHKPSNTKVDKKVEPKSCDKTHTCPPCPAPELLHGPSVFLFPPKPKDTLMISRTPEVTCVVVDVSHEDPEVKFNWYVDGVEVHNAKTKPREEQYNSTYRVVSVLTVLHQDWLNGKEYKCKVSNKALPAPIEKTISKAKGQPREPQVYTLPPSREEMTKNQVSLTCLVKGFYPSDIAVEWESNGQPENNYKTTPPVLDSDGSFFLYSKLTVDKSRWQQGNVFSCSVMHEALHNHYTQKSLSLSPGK
light: B1 light
notes: HuAM4G7 IgG1 Fc variant
B6: G236M (antibody, human IgG1, kappa)
heavy: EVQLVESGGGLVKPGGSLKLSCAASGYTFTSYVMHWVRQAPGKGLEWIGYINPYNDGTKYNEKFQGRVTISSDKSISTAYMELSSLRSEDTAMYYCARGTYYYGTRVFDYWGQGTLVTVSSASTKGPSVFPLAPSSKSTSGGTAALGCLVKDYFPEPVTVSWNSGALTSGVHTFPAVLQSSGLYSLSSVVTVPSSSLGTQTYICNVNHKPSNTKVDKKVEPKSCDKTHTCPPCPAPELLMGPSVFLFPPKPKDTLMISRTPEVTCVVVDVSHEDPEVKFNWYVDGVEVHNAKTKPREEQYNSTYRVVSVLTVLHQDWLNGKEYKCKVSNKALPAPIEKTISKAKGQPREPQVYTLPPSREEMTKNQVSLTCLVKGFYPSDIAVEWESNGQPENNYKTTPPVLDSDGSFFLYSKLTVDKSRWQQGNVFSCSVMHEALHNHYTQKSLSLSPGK
light: B1 light
notes: HuAM4G7 IgG1 Fc variant
B7: G236P (antibody, human IgG1, kappa)
heavy: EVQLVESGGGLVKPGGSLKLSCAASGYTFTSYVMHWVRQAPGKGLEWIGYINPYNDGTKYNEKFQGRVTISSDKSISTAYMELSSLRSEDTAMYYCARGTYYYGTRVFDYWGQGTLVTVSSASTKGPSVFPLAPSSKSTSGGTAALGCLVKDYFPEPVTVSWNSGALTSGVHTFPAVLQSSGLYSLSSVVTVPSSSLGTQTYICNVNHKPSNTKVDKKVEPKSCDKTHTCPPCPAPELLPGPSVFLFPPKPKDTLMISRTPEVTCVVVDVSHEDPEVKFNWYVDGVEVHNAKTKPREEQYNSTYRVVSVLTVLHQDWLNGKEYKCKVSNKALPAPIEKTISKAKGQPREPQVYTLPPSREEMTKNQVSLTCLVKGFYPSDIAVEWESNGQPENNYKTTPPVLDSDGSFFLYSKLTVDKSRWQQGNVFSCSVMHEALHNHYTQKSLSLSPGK
light: B1 light
notes: HuAM4G7 IgG1 Fc variant
B8: G236Q (antibody, human IgG1, kappa)
heavy: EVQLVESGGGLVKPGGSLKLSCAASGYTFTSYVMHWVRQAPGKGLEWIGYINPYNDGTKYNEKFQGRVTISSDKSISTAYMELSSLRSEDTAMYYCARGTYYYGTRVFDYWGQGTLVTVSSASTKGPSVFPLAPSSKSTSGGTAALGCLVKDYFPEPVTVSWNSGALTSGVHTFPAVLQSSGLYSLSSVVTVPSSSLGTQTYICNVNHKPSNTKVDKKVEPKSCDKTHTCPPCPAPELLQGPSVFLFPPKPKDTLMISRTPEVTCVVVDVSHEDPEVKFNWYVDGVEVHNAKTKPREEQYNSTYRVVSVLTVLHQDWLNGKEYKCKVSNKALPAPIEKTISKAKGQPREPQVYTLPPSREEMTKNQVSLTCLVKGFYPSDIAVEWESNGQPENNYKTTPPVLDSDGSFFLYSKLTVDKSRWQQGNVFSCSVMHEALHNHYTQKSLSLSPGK
light: B1 light
notes: HuAM4G7 IgG1 Fc variant
B9: S239D/H268D/L328F (antibody, human IgG1, kappa)
heavy: EVQLVESGGGLVKPGGSLKLSCAASGYTFTSYVMHWVRQAPGKGLEWIGYINPYNDGTKYNEKFQGRVTISSDKSISTAYMELSSLRSEDTAMYYCARGTYYYGTRVFDYWGQGTLVTVSSASTKGPSVFPLAPSSKSTSGGTAALGCLVKDYFPEPVTVSWNSGALTSGVHTFPAVLQSSGLYSLSSVVTVPSSSLGTQTYICNVNHKPSNTKVDKKVEPKSCDKTHTCPPCPAPELLGGPDVFLFPPKPKDTLMISRTPEVTCVVVDVSDEDPEVKFNWYVDGVEVHNAKTKPREEQYNSTYRVVSVLTVLHQDWLNGKEYKCKVSNKAFPAPIEKTISKAKGQPREPQVYTLPPSREEMTKNQVSLTCLVKGFYPSDIAVEWESNGQPENNYKTTPPVLDSDGSFFLYSKLTVDKSRWQQGNVFSCSVMHEALHNHYTQKSLSLSPGK
light: B1 light
notes: HuAM4G7 IgG1 Fc variant
B10: S239D/H268D/L328F/I332E (antibody, human IgG1, kappa)
heavy: B9 heavy with I336E
light: B1 light
notes: HuAM4G7 IgG1 Fc variant
B11: S239D/H268D/L328W (antibody, human IgG1, kappa)
heavy: B9 heavy with F332W
light: B1 light
notes: HuAM4G7 IgG1 Fc variant
B12: S239D/H268D/L328W/I332E (antibody, human IgG1, kappa)
heavy: B9 heavy with F332W, I336E
light: B1 light
notes: HuAM4G7 IgG1 Fc variant
B13: S239D/H268D/L328Y (antibody, human IgG1, kappa)
heavy: B9 heavy with F332Y
light: B1 light
notes: HuAM4G7 IgG1 Fc variant
B14: S239D/H268D/L328Y/I332E (antibody, human IgG1, kappa)
heavy: B9 heavy with F332Y, I336E
light: B1 light
notes: HuAM4G7 IgG1 Fc variant
B15: S239D/H268E/L328Y (antibody, human IgG1, kappa)
heavy: B9 heavy with D272E, F332Y
light: B1 light
notes: HuAM4G7 IgG1 Fc variant
B16: S239D/K326D/L328Y (antibody, human IgG1, kappa)
heavy: B9 heavy with D272H, K330D, F332Y
light: B1 light
notes: HuAM4G7 IgG1 Fc variant
B17: S239D/L328F/I332E (antibody, human IgG1, kappa)
heavy: B9 heavy with D272H, I336E
light: B1 light
notes: HuAM4G7 IgG1 Fc variant
B18: S239D/L328Y (antibody, human IgG1, kappa)
heavy: not shown
light: B1 light
notes: HuAM4G7 IgG1 Fc variant
B19: S239D/L328Y/I332E (antibody, human IgG1, kappa)
heavy: B9 heavy with D272H, F332Y, I336E
light: B1 light
notes: HuAM4G7 IgG1 Fc variant
B20: S239D/S267A/L328Y (antibody, human IgG1, kappa)
heavy: B9 heavy with S271A, D272H, F332Y
light: B1 light
notes: HuAM4G7 IgG1 Fc variant
B21: S239D/S267D (antibody, human IgG1, kappa)
heavy: not shown
light: B1 light
notes: HuAM4G7 IgG1 Fc variant
B22: S239D/S267E/I332E (antibody, human IgG1, kappa)
heavy: B9 heavy with S271E, D272H, F332L, I336E
light: B1 light
notes: HuAM4G7 IgG1 Fc variant
B23: S267A/H268D/L328Y (antibody, human IgG1, kappa)
heavy: B9 heavy with D243S, S271A, F332Y
light: B1 light
notes: HuAM4G7 IgG1 Fc variant
B24: S267A/L328Y/I332E (antibody, human IgG1, kappa)
heavy: B9 heavy with D243S, S271A, D272H, F332Y, I336E
light: B1 light
notes: HuAM4G7 IgG1 Fc variant
B25: S267D/A327D (antibody, human IgG1, kappa)
heavy: not shown
light: B1 light
notes: HuAM4G7 IgG1 Fc variant
B26: S267D/A327E (antibody, human IgG1, kappa)
heavy: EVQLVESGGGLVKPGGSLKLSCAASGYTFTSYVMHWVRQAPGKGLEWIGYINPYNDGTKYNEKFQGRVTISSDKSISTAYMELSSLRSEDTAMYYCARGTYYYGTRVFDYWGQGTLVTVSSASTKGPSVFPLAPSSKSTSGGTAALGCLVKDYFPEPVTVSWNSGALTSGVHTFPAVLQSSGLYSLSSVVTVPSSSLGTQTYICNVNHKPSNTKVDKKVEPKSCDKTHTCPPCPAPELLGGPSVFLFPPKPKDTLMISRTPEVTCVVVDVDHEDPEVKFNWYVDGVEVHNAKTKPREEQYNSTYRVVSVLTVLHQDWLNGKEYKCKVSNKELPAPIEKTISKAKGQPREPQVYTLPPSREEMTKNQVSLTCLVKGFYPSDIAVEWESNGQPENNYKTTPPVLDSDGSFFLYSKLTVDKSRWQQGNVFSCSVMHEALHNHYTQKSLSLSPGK
light: B1 light
notes: HuAM4G7 IgG1 Fc variant
B27: S267D/H268D (antibody, human IgG1, kappa)
heavy: not shown
light: B1 light
notes: HuAM4G7 IgG1 Fc variant
B28: S267D/H268E (antibody, human IgG1, kappa)
heavy: not shown
light: B1 light
notes: HuAM4G7 IgG1 Fc variant
B29: S267E/H268D (antibody, human IgG1, kappa)
heavy: not shown
light: B1 light
notes: HuAM4G7 IgG1 Fc variant
B30: S267E/L328Q (antibody, human IgG1, kappa)
heavy: not shown
light: B1 light
notes: HuAM4G7 IgG1 Fc variant
B31: G236V (antibody, human IgG1, kappa)
heavy: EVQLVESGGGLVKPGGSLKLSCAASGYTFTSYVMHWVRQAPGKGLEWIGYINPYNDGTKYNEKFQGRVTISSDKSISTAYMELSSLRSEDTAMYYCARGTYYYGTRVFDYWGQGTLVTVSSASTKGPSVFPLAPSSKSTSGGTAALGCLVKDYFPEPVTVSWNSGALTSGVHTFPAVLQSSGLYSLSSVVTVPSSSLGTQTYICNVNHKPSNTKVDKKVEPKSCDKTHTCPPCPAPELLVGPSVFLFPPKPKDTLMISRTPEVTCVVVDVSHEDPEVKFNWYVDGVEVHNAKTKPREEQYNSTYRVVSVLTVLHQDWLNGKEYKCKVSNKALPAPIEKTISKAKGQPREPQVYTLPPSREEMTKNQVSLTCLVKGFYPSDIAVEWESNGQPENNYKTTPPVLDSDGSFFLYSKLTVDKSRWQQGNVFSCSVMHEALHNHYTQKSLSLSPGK
light: B1 light
notes: HuAM4G7 IgG1 Fc variant
B32: H268Q (antibody, human IgG1, kappa)
heavy: not shown
light: B1 light
notes: HuAM4G7 IgG1 Fc variant
B33: L235N (antibody, human IgG1, kappa)
heavy: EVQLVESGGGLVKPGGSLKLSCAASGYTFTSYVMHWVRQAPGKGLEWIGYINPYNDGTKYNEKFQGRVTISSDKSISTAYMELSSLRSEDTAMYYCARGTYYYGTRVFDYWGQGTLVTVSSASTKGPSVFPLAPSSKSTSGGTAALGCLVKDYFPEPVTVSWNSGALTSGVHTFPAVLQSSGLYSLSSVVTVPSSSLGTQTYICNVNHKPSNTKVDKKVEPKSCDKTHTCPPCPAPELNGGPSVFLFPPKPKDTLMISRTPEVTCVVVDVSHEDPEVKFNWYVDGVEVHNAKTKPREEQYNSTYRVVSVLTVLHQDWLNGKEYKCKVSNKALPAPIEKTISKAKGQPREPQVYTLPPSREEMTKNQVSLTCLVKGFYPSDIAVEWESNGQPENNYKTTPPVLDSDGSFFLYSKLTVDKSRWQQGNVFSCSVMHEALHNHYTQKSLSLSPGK
light: B1 light
notes: HuAM4G7 IgG1 Fc variant
B34: L235P (antibody, human IgG1, kappa)
heavy: not shown
light: B1 light
notes: HuAM4G7 IgG1 Fc variant
B35: L235Q (antibody, human IgG1, kappa)
heavy: not shown
light: B1 light
notes: HuAM4G7 IgG1 Fc variant

Target: T1, human FcγRIIb receptor protein (R&D …)
Test: SPR (Biacore)
Method: (§1) Variants were screened for receptor affinity using Biacore™ technology, also referred to as Biacore herein, a surface plasmon resonance (SPR) based technology for studying biomolecular interactions in real time. SPR measurements were performed using a Biacore 3000 instrument (Biacore, Piscataway, N.J.). A protein A/G (Pierce Biotechnology) CM5 biosensor chip (Biacore) was generated using a standard primary amine coupling protocol. All measurements were performed using HBS-EP buffer (10 mM HEPES pH 7.4, 0.15 M NaCl, 3 mM EDTA, 0.005% vol/vol surfactant P20, Biacore). Antibodies at 20 nM or 50 nM in HBS-EP buffer were immobilized on the protein A/G surface and FcγRs were injected. After each cycle, the surface was regenerated by injecting glycine buffer (10 mM, pH 1.5). Data were processed by zeroing time and response before the injection of FcγR and by subtracting appropriate nonspecific signals (response of reference channel and injection of running buffer). Kinetic analyses were performed by global fitting of binding data with a 1:1 Langmuir binding model using BIAevaluation software (Biacore).

| Binder | Fold FcγRIIb [fold] | binding result |
| --- | --- | --- |
| B1 | 0.353 |  |
| B2 | 0.011 |  |
| B3 | 0.417 |  |
| B4 | 11.4 |  |
| B5 |  | no binding |
| B6 | 0.147 |  |
| B7 | 0.147 |  |
| B8 | 0.147 |  |
| B9 | 8.79 |  |
| B10 | 53.2 |  |
| B11 | 51.1 |  |
| B12 | 27.8 |  |
| B13 | 24.4 |  |
| B14 | 54.1 |  |
| B15 | 21.7 |  |
| B16 | 13 |  |
| B17 | 8.34 |  |
| B18 | 5.56 |  |
| B19 | 7.41 |  |
| B20 | 19.8 |  |
| B21 | 22.3 |  |
| B22 | 124 |  |
| B23 | 10.7 |  |
| B24 | 13.5 |  |
| B25 | 6.89 |  |
| B26 | 12.1 |  |
| B27 | 14.2 |  |
| B28 | 17.8 |  |
| B29 | 33.3 |  |
| B30 | 12.1 |  |

Target: T2, FcγRIIaR
Test: SPR (Biacore)
Method: as §1

| Binder | Fold FcγRIIaR [fold] |
| --- | --- |
| B1 | 0.319 |
| B2 | 0.634 |
| B3 | 0.307 |
| B4 | 36.5 |
| B5 | 0.135 |
| B6 | 0.0859 |
| B7 | 0.0859 |
| B8 | 0.0859 |
| B31 | 0.106 |
| B32 | 1.58 |
| B33 | 0.0356 |
| B34 | 0.122 |
| B35 | 2.04 |
